Measurements reported in US20030044888, “NOVEL STEROID-ACTIVATED NUCLEAR RECEPTORS AND USES THEREFOR” (published 2003).

Target: SXR/RXR heterodimer (Homo sapiens, UniProt O75469;P19793 O75469:1-434,P19793:1-462)
Test: EMSA; mutations prevented heterodimer binding; 10 mM Tris pH 8, 100 mM KCl, poly dI:dC, room temp
Conditions: tags: TNT (Promega); SXR initiator Leu changed to Met
Experimental: Electrophoretic mobility shift assays were performed using in vitro transcribed, translated proteins (TNT, Promega ). Proteins (1 μl each) were incubated for 20 minutes at room temperature with 100,000 cpm of Klenow-labeled probes in 10 mM Tris pH 8, 100 mM KCl, 6% glycerol, 0.05% NP-40, 1 mM dithiothreitol (DTT), 100 ng/μl poly dI:dC (Pharmacia, Piscataway, N.J.) and then electrophoresed through a 5% polyacrylamide gel in 0.5× TBE (45 mM Tris-base, 45 mM boric acid, 1 mM ethylenediaminetetraacetic acid (EDTA) at room temperature. For competition binding, protein plus unlabeled oligonucleotides at five or fifty fold molar excess were preincubated for ten minutes on ice, then labeled probes were added and incubated for 20 minutes at room temperature. Electrophoresis was as above. The IR series oligonucleotides tested had the following sequences: […]

SXR/RXR heterodimer, sequence (O75469 whole entry, chain 1 of 2): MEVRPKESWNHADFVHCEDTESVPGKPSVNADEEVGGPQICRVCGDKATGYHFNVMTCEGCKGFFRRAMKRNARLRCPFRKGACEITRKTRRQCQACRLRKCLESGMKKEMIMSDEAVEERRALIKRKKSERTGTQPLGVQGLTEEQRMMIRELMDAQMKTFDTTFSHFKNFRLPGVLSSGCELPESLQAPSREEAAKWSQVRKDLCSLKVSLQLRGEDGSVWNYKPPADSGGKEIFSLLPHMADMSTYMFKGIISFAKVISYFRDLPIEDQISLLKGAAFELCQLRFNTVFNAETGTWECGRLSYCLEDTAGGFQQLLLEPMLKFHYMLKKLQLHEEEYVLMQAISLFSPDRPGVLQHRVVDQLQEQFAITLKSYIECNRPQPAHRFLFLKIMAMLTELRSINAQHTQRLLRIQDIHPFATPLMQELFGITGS
SXR/RXR heterodimer, sequence (P19793 whole entry, chain 2 of 2): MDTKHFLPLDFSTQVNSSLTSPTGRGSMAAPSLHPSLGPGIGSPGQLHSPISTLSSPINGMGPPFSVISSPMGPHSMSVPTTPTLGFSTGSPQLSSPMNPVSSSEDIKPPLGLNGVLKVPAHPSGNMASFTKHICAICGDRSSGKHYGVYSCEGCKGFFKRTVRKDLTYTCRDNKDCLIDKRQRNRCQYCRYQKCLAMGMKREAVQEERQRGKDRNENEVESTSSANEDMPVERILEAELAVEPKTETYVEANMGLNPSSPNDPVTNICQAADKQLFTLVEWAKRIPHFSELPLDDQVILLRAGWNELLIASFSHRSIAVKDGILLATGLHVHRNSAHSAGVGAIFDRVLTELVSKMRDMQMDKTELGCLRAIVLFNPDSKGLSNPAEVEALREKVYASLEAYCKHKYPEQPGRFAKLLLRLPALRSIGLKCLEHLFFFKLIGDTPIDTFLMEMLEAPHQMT

B1: IR-M (dsDNA)
DNA 1: AGCTTACGTCATGACGTA
DNA 2: TACGTCATGACGTAAGCT
  binding result: no binding
